B1: Protein phosphatase Slingshot homolog 1 (Homo sapiens), Q8WYL5 (parent)
chain: MALVTLQRSPTPSAASSSASNSELEAGSEEDRKLNLSLSESFFMVKGAALFLQQGSSPQGQRSLQHPHKHAGDLPQHLQVMINLLRCEDRIKLAVRLESAWADRVRYMVVVYSSGRQDTEENILLGVDFSSKESKSCTIGMVLRLWSDTKIHLDGDGGFSVSTAGRMHIFKPVSVQAMWSALQVLHKACEVARRHNYFPGGVALIWATYYESCISSEQSCINEWNAMQDLESTRPDSPALFVDKPTEGERTERLIKAKLRSIMMSQDLENVTSKEIRNELEKQMNCNLKELKEFIDNEMLLILGQMDKPSLIFDHLYLGSEWNASNLEELQGSGVDYILNVTREIDNFFPGLFAYHNIRVYDEETTDLLAHWNEAYHFINKAKRNHSKCLVHCKMGVSRSASTVIAYAMKEFGWPLEKAYNYVKQKRSITRPNAGFMRQLSEYEGILDASKQRHNKLWRQQTDSSLQQPVDDPAGPGDFLPETPDGTPESQLPFLDDAAQPGLGPPLPCCFRRLSDPLLPSPEDETGSLVHLEDPEREALLEEAAPPAEVHRPARQPQQGSGLCEKDVKKKLEFGSPKGRSGSLLQVEETEREEGLGAGRWGQLPTQLDQNLLNSENLNNNSKRSCPNGMEDDAIFGILNKVKPSYKSCADCMYPTASGAPEASRERCEDPNAPAICTQPAFLPHITSSPVAHLASRSRVPEKPASGPTEPPPFLPPAGSRRADTSGPGAGAALEPPASLLEPSRETPKVLPKSLLLKNSHCDKNPPSTEVVIKEESSPKKDMKPAKDLRLLFSNESEKPTTNSYLMQHQESIIQLQKAGLVRKHTKELERLKSVPADPAPPSRDGPASRLEASIPEESQDPAALHELGPLVMPSQAGSDEKSEAAPASLEGGSLKSPPPFFYRLDHTSSFSKDFLKTICYTPTSSSMSSNLTRSSSSDSIHSVRGKPGLVKQRTQEIETRLRLAGLTVSSPLKRSHSLAKLGSLTFSTEDLSSEADPSTVADSQDTTLSESSFLHEPQGTPRDPAATSKPSGKPAPENLKSPSWMSKS

In this assay the parent is B1. The settings on record: with actb_rabit ACTB.
For W458A, the “effect of a mutation on the interaction” value was “disrupting interaction”.

Source of the values: IntAct's records for PubMed 16513117.
